{"source": "the DeepSol protein solubility set"}
{"experiment": "soluble on expression in E. coli; label from the status in PepcDB or PDB records"}
{"sequence": "METAMSKGVITITDAEFESEVLKAEQPVLVYFWASWCGPCQLMSPLINLAANTYSDRLKVVKLEIDPNPTTVKKYKVEGVPALRLVKGEQILDSTEGVISKDKLLSFLDTHLNNN", "soluble on expression in E. coli": "soluble"}
{"sequence": "MTKVSVVGAAGTVGAAAGYNIALRDIADEVVFVDIPDKEDDTVGQAADTNHGIAYDSNTRVRQGGYEDTAGSDVVVITAGIPRQPGQTRIDLAGDNAPIMEDIQSSLDEHNDDYISLTTSNPVDLLNRHLYEAGDRSREQVIGFGGRLDSARFRYVLSEEFDAPVQNVEGTILGEHGDAQVPVFSKVSVDGTDPEFSGDEKEQLLGDLQESAMDVIERKGATEWGPARGVAHMVEAILHDTGEVLPASVKLEGEFGHEDTAFGVPVSLGSNGVEEIVEWDLDDYEQDLMADAAEKLSDQYDKIS", "soluble on expression in E. coli": "soluble"}
{"sequence": "MNLDDIINSMTPEVYQRLSTAVELGKWPDGVALTEEQKENCLQLVMLWQARHNTEAQHMTIDTNGQMVMKSKQQLKEDFGISAKPIAMFK", "soluble on expression in E. coli": "not soluble"}
{"sequence": "MGSDKIHHHHHHMPPNFHADTPLAQRMRPTTLDTIIGQEHLLAVGAPLRRLVEQGHLPSIILHGEAGIGKTTIAMLLADAVGRPFHALSALNTGVKQLREVLDSKDSLSFESPVVFIDEIHRFNKAQQDALLGAVESGDITLIGATTENPSFSVNNALLSRCQVYRLEPLTPEQISAVLQRALLEDNVLKQLSIDLQAQQTISQLAHGDARKSLNLLELAIQTADTKQSPIIIDDALVARVAQTALVRYDKDGEQHYDIVSAMIKSVRGSDPDAALYWMARMLVGGEPADFIARRLVILASEDIGNANPNALLLADAALRSVQSIGMPEARIILGQVVVYLATSAKSNSTYNAINAAMSLAEKDASPVPLHLRNGVTKLMRQQGYGQDYVYPHNYPNHYYAQNYLPDKLIGTRFYEFADNQREQHSKQFVDWLKSQAASND", "soluble on expression in E. coli": "not soluble"}
{"sequence": "RVMDMKAPIKVYMTKKLLGVKPSTSVQEASRLMMEFDVGSLVVINDDGNVVGFFTKSDIIRRVIVPGLPYDIPVERIMTRNLITANVNTPLGEVLRKMAEHRIKHILIEEEGKIVGIFTLSDLLEASRRRLETAISAE", "soluble on expression in E. coli": "soluble"}
{"sequence": "IGEFSYHVNGNFSIIKNKVISLGVGDVEQKSGMIGNGSDLFLGYPMNMFYGYKTDGVFLTDDEVKEWHDQSKIAPNSKAGDLRYVDISGDGKVDESDKTYLGSKIPQYTFGLGLGAEYKGFDFNILLQGVAKVKGQLTNYAGYAFFQEGNIQKWQAEETWTNNQSNRYPKYPRLEVMSNAGSNNTLGSDFWILDASYLKVRNIQLGYTLPKRITQKFGSSNLRFYISLDNPFSISGYRKGWDPEINTDGSYYPILSTYTFGLTLKF", "soluble on expression in E. coli": "not soluble"}
{"sequence": "MAHHHHHHMSTVEELKFIWKFLFSHMNTEKSKEEICDEKKYEENIILLKKLMRTENIKFDQKYNAINILEKLKDIEDIQYEDILNDYAKNFLTFLKGSFEKVAEEIQINDKISFRRNELIKQDLNNKLQNLNHNYNLEYINLNKCLGTEDFESQLNASLKFNSLKDILSKLLKEMKDYEIQYNNLSDTDKFLDMKICELENYLNNTNQNS", "soluble on expression in E. coli": "not soluble"}
{"sequence": "MTDANYPIYGDIDGPIIMIGFGSIGRGTLPLIERHFNFDRTRLVVIDPREDIAAFLAERNIRHVQTHLTKENYKDVLKPLLKGVQGKGFCVNLSVDAASVDLMRICRKHGMLYIDTVVEPWPGFYFDADADNRARTNYSLRETMLKERARKPGGTTAVSTCGANPGMVSWFVKQALVNLAKDTGLDIEEPQSHDREGWAKLMQQLGVKGVHVAERDTQRAKEPKPFGAFWNTWSVEGFIAEGFQPAELGWGTHENWMPKNAKKQKKGSKAAIYLDQPGANTRVRTWCPGLGAQYGFLVTHNEAISISDYFTVRNDDGDVTYRPTCHYAYHPCNDAILSLHELFGNGGNPQPIQHVLGEDELVDGADELGVLLYGHDRNAYWYGSRLSLEEARSLAPSQNATGLQVSSAVLAGMAWAIENPEAGIVEADEMDYRRCLEVQRPYLGPVEGHYTDWTPLDGRPGLFPDNIDMSDPWQFRNILVRAAALEHHHHHH", "soluble on expression in E. coli": "soluble"}
{"sequence": "SANSGCKDVTGPDEESFLYFAYGSNLLTERIHLRNPSAAFFCVARLQDFKLDFGNSQGKTSQTWHGGIATIFQSPGDEVWGVVWKMNKSNLNSLDEQEGVKSGMYVVIEVKVATQEGKEITCRSYLMTNYESAPPSPQYKKIICMGAKENGLPLEYQEKLKAIEPNDYTGKVSEEIEDIIKKGETQTL", "soluble on expression in E. coli": "soluble"}
{"sequence": "MTEQTSPESLTDGAHSKTDSAWPLACNLEPRLVSRGRWQTTQWMLHGFSLTPEAQSQYVATLHLYRDERTDYRFNLSSQAPKLFLVAEDPIEDQPLKVVQLTASQAVASRYMDSDYLVLSADMPLPVQALMEAYIGRHGELLEIRRKKREGAGRSCGN", "soluble on expression in E. coli": "not soluble"}
{"sequence": "TIEIYKNKIPDGKNAGKDAILIKDNNLIKQLEDAAKKNGAESNQKQGGESNVQKEQIIGYTTTGNVREDGNHIFRVDKINDEQYDRKIIVGVTVETLEQSSTLQSEEAIVLAAPGKYKSTDKKKVTITQGPNIIGIHANEKENAETQKFVDW", "soluble on expression in E. coli": "soluble"}
{"sequence": "MPVSPEREQALSEFVAAVQAREDVQSELNEITTLDQLKTIVDSIEPALTGAALIPFEQATSPPKITVDSGVLDKNIPWRLLRCPGGPLVLQMICTRVNFALWIESC", "soluble on expression in E. coli": "not soluble"}
{"sequence": "MSLSITRRVRLSVDTCCYEAEIAGILRPQLLKGRMSVREEFDAWAAEGKDRGMEDRHWHTAKHVLARMPVEPGDTVLDLGTGSGYALRALRDTNDAGPCYGLDGSPEMLRNAREYTDDDGIGFLRGDFDALPFATDSIDHVFSMEAFYYASDPPHTLEEIARVLRPGGTANIAVNYYEENVHSHEWQEFIDIEMTRWSADEYREAFREAGLAVAAQDTIPDREVEIPPADTFPTDEFETREAMVERYRELGTLLTVGVATEGHHHHHH", "soluble on expression in E. coli": "soluble"}
{"sequence": "QYCWQHRFPTGYFSICDRYMNGTCPEGNSCKFAHGNAELHEWEERRDALKMKLNKA", "soluble on expression in E. coli": "soluble"}
{"sequence": "MITSTNKEAYPNTLIVILGHDEGRSSFEEKEDVTRVTNDKGETIGFNFFNVDKLIDFDKLPNGPVKLSDDELEALNKKLAEVGFDDKLEYGKPTLVYGYVKTCEKHPDSDHLHVTTIEVGDGEEHQIVCGAPNIAQGQKVVVALPGTLMPNGAQIWPGKLRGVDSYGMICSARELGLPHAPQKRGIMVVPDSFEVGAEFEPTKCDELIASGEITLLEHHHHHH", "soluble on expression in E. coli": "soluble"}
{"sequence": "MTGYPDVAAFDLDYTIWPCYCDTHLHGPFKPVKSSNGEVLTIICRDGYELTIYKDIPRILGDLKDNGVKLMTASRTWAPEIAQEILKIFKVKYAGVVTPLANLFDEFQWGERSKIGHLRDGLKDLYNTSDLKSKKICLFDDESRNKEVEKYGVKFVYVRDPENGPSWKLYQDYLSGKV", "soluble on expression in E. coli": "not soluble"}
{"sequence": "MSLGELNVATVTRRPEILLVDSQEVILQRLQQLLSPLPYTLHFARDATQALQLLASREVDLVISAAHLPQMDGPTLLARIHQQYPSTTRILLTGDPDLKLIAKAINEGEIYRYLSKPWDDQELLLALRQALEHQHSERERLRLQDLAQQQNAELKALNTLLEKRVAARTSELQQTADMLDLAYEELKPSYATGAELFSLLVNQRLPADKQTNRRIIELVRAYCKVQGIDPGAQRDLAMAAALHNIGKLSWSDSMMTSPADLLHHHQRERYRAYPAQSESLLMTLEPVQDAARLIRHHQEHWDGSGFPDHLKGDAIPLGSRLLKLAVDFIELQCGLILERHMNSDEALVFIRKYAGRLYDPDLVEGFIQVCAVYLSDVTLGDPSVKVLSTRELAAGMILARNLNADNGMLLLNAGKVLNLPLVDKLIAFETMEGARYSVFVKLPQEQQARAEGHHHHHH", "soluble on expression in E. coli": "not soluble"}
{"sequence": "MLIKGLSDTLLENPLWQKTYLRSFMQFYSTNSLSWGQLSYEEGEIRNLHYGLIHSFQTSEIDTDSLPRILPANVPKQYTLCQAGDVAFADASEDTDEIGKAVEFIRTHKASVICGLHTIHGRDIKCKTLLGFKRVAFNSHYFHDQIKRLAQGTKVFSITSSNLSSCYIYIPDIVMQKSIVVLFEAYEEQLITNKRLLEQYEKQKRYLLQQMFILEHHHHHH", "soluble on expression in E. coli": "not soluble"}
{"sequence": "MSDTPKYTQDQVIAIKNRILEALETVIDPELGIDVVNLGLIYEIRFNDNGYTEIDMTLTTMGCPLADLLTDYIHDALQDVPEVTKTEVKLVWYPAWTVDKMSRYARIALGIR", "soluble on expression in E. coli": "not soluble"}
{"sequence": "MNSEQQQTVFLCVSYLLSYPDEQWAESLPDCLDAIRSLDDETVRAPLLAFAEQINSIPARQRMEQYVETFDFGKKTNLYLTYMTNGEQRERGIELVALKARYQAAGFAVSDHELPDYLPLMLEWMAYADQEHTTALLADYAGHIREIGDRLAAAGSPYAQLFDALNHTFTQLGVTPLPKGGATAWPANFSG", "soluble on expression in E. coli": "not soluble"}
{"sequence": "MRPFILLALLVSVTVAFNIFRDEVVPEEQLLAVRRTTRDASDSSSDSDEKDDAKTTVTVSFGLSGSQAWPIFQFFSFALKTKKKSKFFRRSGYELRPRP", "soluble on expression in E. coli": "not soluble"}
{"sequence": "MNLPSKFHQVTITDPIAGAGITFTIPTRYVNLKFLNVGAQGIVVMADDLVTTQRVAIKKMQQPFLLTMSARRAYREFILLTTLKHPNIIRLLNAFTPDTSLSSFQEVYLVMEFMTHNLHEVIHRLRLDHETLSFLVYQSLCAIKHLHNLGFIHRDLKPSNIVVNERCVLKVLDFGLARRRNVDMRMSDYVGTRYYRAPEVILGLNYSEKVDIWSVGCILAEMINHTVLFPGKDIRDQWTQISSVLRTPDDHFINQLEPIGAVYVRSLPQHLARAFNEIVPDSNFLPETENPKDHLTLHMARDLLFNMLKINPEERYSVEDALNHPYTMVQGR", "soluble on expression in E. coli": "not soluble"}
{"sequence": "MQPTPTQRPEAIVHDEKAQLDFARDMSYGDYLHLDELLGAQHPLSPEHNEMLFIVQHQTSELWMKLMLHELRAAIAAIQQDRLQPAFKMLARVSKILEQLVSAWDVLATMTPPEYSALRPYLAHSSGFQSYQYRQIEYLLGNKNAAMLQPHAHRADLLAQVRAAFEAPSLYDEALRFLARSGLAVPAGALQRDWTQPYRADDQVEQAWLTVYRQSERYWNQYQLGEKLTDLEDAFRLWRFRHVTTVERIIGFKRGTGGTSGVTYLRKMLEVVLFPEIWKLRTDLLEHHHHHH", "soluble on expression in E. coli": "not soluble"}
{"sequence": "MGSDKIHHHHHHMNIQQLRYVVAIANNGTFREAASKLFVSQPSLSVSIKDLEAELGFQIFNRTTSGTVLTSQGLVFYEKALEVVKSFDSFEKTFSQADLDQNEFSIASQHYDFLPPLITAFSQQYDGHRVFRIFESTTIQILDEVAQGNSEIGIIYLNVDNQKGLFQRMDKLGLEYVSLIPFTTHIYLSKTHPLANREALYLNDIQGLPAVRFTQERDEYLYYSENFVDTSECPRIYNVSDRATLNGILERTNAFATGSGFLDHRSVNGIKVIPLADHIDNQMIYVKRKDKNLSVAGATFVTILKDYFDKRRKALT", "soluble on expression in E. coli": "not soluble"}
{"sequence": "MATMTTKSHCTFNPDYYQDVWQRFGEEEYDVVVIGGGSVGAGAGLDAAIRGLKVAVVESRDFAAGTSSRSSKMFHGGLRYLAMLDFKLVAESLHERELNMSTLAPHLVKPLKFLFPLTHHVWERVMMFGGFTLYDLMGGAKSVPMQKHYSRKGTLAMAPGLKDDAVVGSVRYFDTLVDDARHTMTVLRTAGELGADVRPSTQVVGFEKDGQRVVGAILQDTDTGEQTTIRGKVFINATGVWNDHIEKLAGGNGPFSVHASKGVHIVVPKNVFDADAAMCFVTEKSVLFVIPWGEYWIIGTTDTDWDLNRADPAPTAADINYILDEVNQRVRRPIQHSDIVGVYSGLRPLLSGKSDTTTKLSRNHAVAKVMPGLVSVAGGKYTTYRVIGKDAVDLATEDLDFRVPASESERTPILGADGYHALQNQAPRIARTFGTTEDVVEHLLGRYGSLVHEVLEPSVDKPELLEPIPGAPGYIKAEAVYAVTHEGALHVEDIVERRLRAGIEYADRGVAAAPAIAELVADYLGWDAERTAAEVTAFTDRVSAEIAAEKELTDKAANEHIVAGSAVRSYVDVSGDNLEHHHHHH", "soluble on expression in E. coli": "soluble"}
